Laboratory results as given in patent EP4725508A1, “LIGAND-DRUG CONJUGATE HAVING FREE PAYLOAD RECOVERY UNIT” (RemeGen Co., Ltd., priority 2024, dated 2025).

Columns and labels:
[1] = tested on: human bladder cancer cell HT-1376 subcutaneous xenograft; test: Efficacy in subcutaneous xenograft model; format: in vivo, BALB/c-nu mice; conditions: equimolar doses
Procedure: Human bladder cancer cells HT-1376 were expanded and cultured, and then subcutaneously inoculated into the right forelimb axilla near the back of BALB/c-nu mice (GemPharmatech, female). Tumor growth was observed. When the tumor volume reached about 90 to 200 mm^3, the mice were randomized into groups based on tumor volume and administered with drugs.
The day of administration was designated as D0. During the experiment, tumor long diameter, short diameter, and body weight were measured twice a week, accompanied by observation of clinical symptoms. At the endpoint of the experiment, the experimental mice were euthanized.

[2] = tested on: CHOK1; test: Cell killing activity; format: cell-based
[3] = biological target: T1, Nectin-4 (Homo sapiens, UniProt Q96NY8); test: Binding activity with Nectin-4
T1 sequence (Q96NY8 32-510): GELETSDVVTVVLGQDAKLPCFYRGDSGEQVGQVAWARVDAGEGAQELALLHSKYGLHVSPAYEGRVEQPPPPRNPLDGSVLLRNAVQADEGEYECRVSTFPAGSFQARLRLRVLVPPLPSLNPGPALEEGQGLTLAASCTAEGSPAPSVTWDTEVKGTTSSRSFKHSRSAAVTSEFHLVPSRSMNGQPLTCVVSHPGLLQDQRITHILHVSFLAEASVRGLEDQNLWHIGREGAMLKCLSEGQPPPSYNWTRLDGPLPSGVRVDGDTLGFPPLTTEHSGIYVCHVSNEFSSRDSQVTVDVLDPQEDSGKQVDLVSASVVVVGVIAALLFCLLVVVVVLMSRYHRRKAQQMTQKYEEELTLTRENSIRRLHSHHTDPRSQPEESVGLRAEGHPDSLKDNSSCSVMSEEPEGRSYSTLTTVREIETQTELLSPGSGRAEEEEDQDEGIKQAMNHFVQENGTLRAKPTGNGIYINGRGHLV

[4] = Comparative study of toxicity in BALB/c mice; format: in vivo
Procedure: (§1) Test 1: 18 BALB/c mice, female, with body weights of 16 to 19 g at the time of grouping, were divided into a PR-ADC group (CDCP1A9-DL01-MMAE, 140 mg/kg) and a conventional ADC group (CDCP1A6-DL01-MMAE, 100 mg/kg), both at equimolar doses, with 9 mice in each group (5 for toxicology + 4 for toxicokinetic (TK)), for a total of 2 groups. A single dose was administered, with a dosing volume of 10 mL/kg. The drug-related toxic effects in BALB/c mice for each group were investigated and compared through aspects such as death, clinical observation, body weight, and toxicokinetic detection. The experiment lasted for 14 days.
(§2) Test 2: 16 BALB/c mice, female, with body weights of 16 to 20 g at the time of grouping, were divided into PR-ADC group (CDCP1A12-DL01-MMAE, 134 mg/kg) and conventional ADC group (CDCP1A6-DL01-MMAE, 100 mg/kg) dose group, both at equimolar doses, with 8 mice in each group (4 for toxicology + 4 for TK), for a total of 2 groups. A single dose was administered, with a dosing volume of 10 mL/kg. The drug-related toxic effects in BALB/c mice for each group were investigated and compared through aspects such as death, clinical observation, body weight, and toxicokinetic detection. The experiment lasted for 14 days.
(§3) 18 BALB/c mice, female, with body weights of 16 to 19 g at the time of grouping, were divided into a PR-ADC group (Nectin4A14-DL01-MMAE, 136 mg/kg) and a conventional ADC group (EV, 100 mg/kg), both at equimolar doses, with 9 mice in each group (5 for toxicology + 4 for TK), for a total of 2 groups.

[5] = Toxicokinetics of free MMAE in serum (Hybrid LBA LC-MS/MS); format: in vivo; conditions: BALB/c mice, Nectin4A14-DL01-MMAE 136 mg/kg vs EV 100 mg/kg
Procedure: as §1
Free MMAE was determined using a Hybrid LBA LC-MS/MS method. Protein A/G-Beads were used to separate the ADC/PR-ADC, MMAE-bound PR-ADC, and MMAE-bound anti-MMAE antibodies from the serum. The remaining samples were subjected to protein precipitation and then tested for free MMAE using the LC-MS/MS method. Table 34. Toxicity test results of animals in each group
as §2
Free MMAE was also determined using the Hybrid LBALC-MS/MS method. Table 36. Toxicity test results of animals in each group
as §3
Free MMAE was also determined using the Hybrid LBA LC-MS/MS method. Table 38. […]

[6] = tested on: HCC1954; test: Cell killing activity; format: cell-based
[7] = tested on: OVCAR3; test: Cell killing activity; format: cell-based

## Enfortumab vedotin [EV]
[1]
  TGI: 71%
[2]
  MIR (%): 17.40%
[3]
  Top OD450: 1.23
[4]; Nectin4A14-DL01-MMAE 136 mg/kg vs EV 100 mg/kg
  Clinical Observation: Piloerection (4/4), Hunched posture (5/5), Squinting eyes (5/5), Lethargy (1/5)
[4]; Nectin4A14-DL01-MMAE 136 mg/kg vs EV 100 mg/kg (equimolar)
  Death: 2/9
[4]; Nectin4A14-DL01-MMAE 136 mg/kg vs EV 100 mg/kg, day in brackets in the cell
  Max Body Weight Change Rate: -24.4% (D7)
[4]; Nectin-4 comparison
  tolerance: less than 100 mg/kg
[5]
  Free MMAE AUC: 9.09097 ± 0.65517 µM·h
  Free MMAE Cmax: 76.08 ± 4.88 nM
  Free MMAE Tmax: 24 h
[6]
  IC50: 148 nM
  MIR (%): 70.90%
[7]
  IC50: 33.3 nM
  MIR (%): 60.27%
